From a protein production outcome set (Wang et al. 2014) come the findings set out here.

The series is described as follows: label from the status in PepcDB records.
Regarding “MNEELIKEKNFSDSVLSSYRMSLDHKKLQNKMIDNMLFRDISGGKKRTFVEEVEDNEEKNNKSAQKCIDGNDKNFIESRKKALENFQQNENNYDCTYKTIKKKNISGCNTTTKLKDVNSSEECQLCLMPNSDSLHGNFPPTFYKLTCDHIFHLMCLYETVIRRECRKTCCICHNELSENDKNEIINKVKLEKKENEKKSKLLFKVMKLQAENKDYPRKDICS”, the protein production result is “failed”.

Consider “MNEFETLLNSVEDVKVRDVVKGEILSVENGQATVAIVGTGVEGVLTLREITNDKDADINTFVKPGDVLDLLVIKQIVGKEAEGANVYLLSLKRLEARKAWTQLEGKEGEIVTVKVTKDVKGGLSVDYNGVRGFIPASMIDTYFVKDTKKFVGEEIEAKIIEVNASENRFILSRRAVVEAEAIEMRKEAFAQLQEGDIVEGTVSRVTNFGAFVDLGGIDGLVHVSELSHSRIKRPSDAVKPGDVVNVKILKLDPEAGRLSLSLKATQPGPWEQVEEKAPVGSTVEGTVKRLTDFGAFVELYPGVEGLVHVSQISWERVENPKDVLKVGQVVNVKVLDVKPAEERISLSIKALEEAPARPARNNDNDGEKRDRKPRAPRKAAKPSYDLPETQEGFSLADFLGEDFDINDLLEHHHHHH”, for which the protein production entry is given as “not failed”.

On to “MNEIFGIDLGTTYSCISYVDEYGRPVVVPNAENERITPSVVFFDGDNVIVGDVAKENSKMYPEDVVSFVKRSMGDENFYFEHGGKNYHAEEISSFILRKLISDAENNLGQKINDVVITCPAYFGINEREATKLAGEIAGLNVKAIINEPTAAAVAYGVDYDKDKVVLVYDLGGGTFDVTMIDVKKDSIKVICTGGDHNLGGKDWDDALIAYMAEQYKEITGNDKDILEDPETCQELQLLAERVKKTLSQREKAPISINYEGERAKIEITRQKFNELTYDLLQRTVNLMDDMLKEAAKKNYTSFDEILLVGGSSRMPQVEEIIKNKYNIEPKVFDPDEAVSKGAALYGWKLSVNDELVRRISEETGKDIEDIKKSIDEKSIDENVVEAAAKRVADDTGYTLSAVKASNVKVVNVVSKSFGVVTYNNEEKEVVYNLIIKNSEVPYEFTERFGTREENQENVMIKIVEDELSDKIVDIAYGNEIGEAELVLPENLPKNSPVDITFKLNEEGRLEIKAIEAVEKREISTSIETSSVIKGKDLEEAKERNKNIEVS”, for which the protein production entry was “failed”.

In the case of “MNENAPTHKSSHKVKTHTPVSGYHIEDLRTYPTEKLLEIANKLKVENPQEFKRQDLMFEILKTQVTQGGYILFTGILEIMPDGYGFLRGFDGSFSDGHNDTYVSPSQIRRFALRNGDIVTGQVRSPKDQEKYYALLKIEAINYSPSDEIRNRPLFDNLTPLFPDEQIKLEYEPTKVTGRMLDLFSPVGKGQRALIVAPPRTGKTELMKELAQGITSNHPEVELIILLVDERPEEVTDMQRSVKGQVFSSTFDLPANNHIRIAELVLERAKRRVEMGKDVVVLLDSITRLARAYNAVTPSSGKVLSGGVDANALHRPKRFFGAARNIEEGGSLTIIATALIETGSRMDEVIFEEFKGTGNSEIVLARNIADRRIYPAFDILKSGTRKDNILLGKDRLTKVWVLRNVMQQMDDIEALSFVYSKMQQTKDNEEFLNLMNEK”, the protein production entry was “failed”.

With “MNENHKELISIGLTVSIVIFSLYIVHKFIPSMIWAAIIVIATYPLYTRWRKLFGNKHNTSAFLFTTLMGLLFLIPLSWLIGILIKESQLFINFLQHINKEGGAAPEFFKNIPLVGDDLIQYWDVNIGKPGNIKEFLSNLHVTLTPTSYYIKQIGVNLAHRSFQVGFTLLTLFFFYRDGDKLLLQIQHIGEYCLGDRWFRYSDRLPSALRGTVNGTIVVGIGVGILMGVCYALVGFPAPTLTGFITALAAMIPFVVPVVFIIVALILLSVGSLIGGIIVLVWGTLVMFVADHFVKPVLIGGAIQLPFLAVLFGILGGVETLGLLGLFLGPMVMVLFVTLWQEPQGHKKSSG”, the protein production result is on record as “failed”.

As to “MNERRKAELVLLGATFIWGSTFPVMKIGVEDFPPITFIALRFGIASFVLFLALRKHIRKDALFPGLILGFTLFLGHGFQIVGLKYTTPSNSAFITSLYVVFTPFIAFLFFRKGLKMFDAFSLSLAVIGLYLISNAELRLNYGDALTVVAALSFAFQIVLVEYFGNLGVGLAFWQIFWNFILSTVYAGIFEGISLPSDPKVLGGIIYTGIFATALSFTLQVKYQPKVESYKAAIIYSSEPIFAHLLALAFLNDRLPPKGYLGAFLILLAVWLELYQERKNY”, the protein production entry is given as “failed”.

As to “MNESERKIVEEFQKETGINFKNEELLFRALCHSSYANEQNQAGRKDVESNEKLEFLGDAVLELFVCEILYKKYPEAEVGDLARVKSAAASEEVLAMVSRKMNLGKFLFLGKGEEKTGGRDRDSILADAFEALLAAIYLDQGYEKIKELFEQEFEFYIEKIMKGEMLFDYKTALQEIVQSEHKVPPEYILVRTEKNDGDRIFVVEVRVNGKTIATGKGRTKKEAEKEAARIAYEKLLKERS”, the protein production result is “not failed”.

Turning to “MNFAGKHVGFGLTGSHCTYHEVLPQMERLVELGAKVTPFVTHTVQTTDTKFGESSEWINKIKQITEEPIVDSMVKAEPFGPKTPLDCMVIAPMTGNSTSKFANAMTDSPVLMGAKATLRNGKPVVVGISTNDALGLNGINIMRLMATKNIYFIPFGQDNPQVKPNSLVARMEALPETIEAALRGQQYQPVLIEKFRD”, the protein production entry is “not failed”.

With “MNFLSQRYTGKSLHPDETKCYKNFTQTAQKLTHRLAESINHYVNHIDCVINTNLYNRLLAEKKESNHMIYKERETWLEAILNTLPDHVFILDESGRYIESFGGTHHSKTFNAERYIGLQLSDVLSPTKADELMGFIFDVMQDNETKVVKYNLSLHDHLLLPIEELEALENPEEMWFEAIIKPVNAPENANKLVIWSVRDITKTHLLEQRLKQLSETDALTGLLNRRAFISNLDNAIIQHTKRSQTLSCLMIDIDHFKDINDSVGHFSGDHVITRIAHVCQGVIRGSDFIGRLGGEEFAVILTDTNAIQAYEVAERIRQAIQATICHVDDVEITTTVSIGVAELNSQQSNAKELLIEADKAMYYSKHSGRNQVTLAYENLPDLKLYQAGHLKIQRVS”, the protein production result is given as “failed”.

On to “MNFNRFTQRAKKAIDLAFESAKSLGHNIVGSEHILLGLLREEEGIAAKVLSKVGFTEAYLEGKIVDMEGKGEEISEDIVLSPRSKQILELSGMFANKLKTNYIGTEHILLAIIQEGEGIANKILNYAGVNDRTLAQLTIDMMG”, for which the protein production result was “not failed”.

For the sequence “MNFQENLAALDLEYLWHPCSQMQEHQNFPIIPIKKAQGIYLYDFNDNAYMDLISSWWVNLFGHNNAYISQQLKNQIDDLEHVLLASFSHKPIITLSQRLCQLTHMDKCFYADNGSSCVEIALKMSYHAHFLKNQTRRKKLFLSLSNSYHGETLGALSVGDVKLYKDTYTPLLLKNLTTPVPKNDHEIENSLNALKRLLDKHSEEICAFIAEPLLQCAGNMHIYSARYLKQAVLLCKQKNIHIIFDEIATGFGRTGSMFAYEQCEIKPDFLCLSKGISGGYLPLSALLTHNEIYNQFYAPYEENKAFLHSHSYTGNALACACANATLDIFEKENVIEKNKALSGFIFNTLQNALKPLMEQQVVSDLRHLGMVFAFEVFIQTKERLSLAVFKKTLKKGLLLRPLNNTIYLMPPYIITHEEVKKAVAGLVEILDELRKG”, the protein production entry is reported as “failed”.

In the case of “MNFSTSFWQGFRALVPLWLGTVPFALAYAVTARAAGLSVGDTCLMSLTTFAGASQFAAAGLFGAHAGGLSIVLTTFLLNARHLLYGLSLARELRLTLPQRVVAAQFLTDEAYGVAVVSGARLPGGLTFAFLLGAELSLYLSWNVSTLLGALAGSVLPPPEQLGVGVVFPLAFLGLLVPLVVDRLSLLVALAAGLGGWALSRVLPGGLVILLAGVGGALLGAALLTRREQRAGVRA”, the protein production result is “failed”.

Turning to “MNGFVQWMEVKLMPIANKFGSQRHMTAIRKGLIATMPLTIVGSFFTIFQNIPIEAYTKLIEPYQAILDIPSRYTMGLLALYATFGIASSLAKSYKLDSLTCGILALMAFLVTAAPPTRVFEDVDNVITAGRYINLANLGSASLFGAIVTALLSVEIYRFFIEKDIMIKMPDGVPPEVSNSFIALIPGAVILLLFWVIRHVIGFDLNGFLSTLLMPLKGILAGNSLFGGLLTVFLICFFWVLGIHGPAIMGPVIRPFWDMSIAENLEAFTNGANVHQLPNIFTEQFLQWFIWIGGAGTTLSLVVLMMFSKSTYLKSLGRLSFLPGLFNINEPVIFGTPIVMNPILGIPFIVAPLITTTLSYFLTVANIIPMMAARLAFAIPAPIAAWMSTNWSFSAAVLVIVNFLITMAIYYPFFKVYEKQQLDKEAEELAAEQAAKN”, the protein production result is listed as “failed”.
